# Assay results: patent publication US20230322953A1 (HARBOUR BIOMED SHANGHAI, published 2023)
# Where a chain is given by its changes, count along the chain named.
# B1: PR001987 (bispecific antibody, human IgG1, lambda, L234A L235A)
# light: QAVVTQEPSLTVSPGGTVTLTCRSSTGAVTTSNYANWVQQKPGQAPRGLIGGTNKRAPWTPARFSGSLLGDKAALTLLGAQPEDEAEYFCALWYSNLWVFGGGTKLTVLGQPKAAPSVTLFPPSSEELQANKATLVCLISDFYPGAVTVAWKADSSPVKAGVETTTPSKQSNNKYAASSYLSLTPEQWKSHRSYSCQVTHEGSTVEKTVAPTECS
# heavy: EVQLLESGGGLVQPGGSLRLSCAASGFTFNTYAMNWVRQAPGKGLEWVSRIRSKYNNYATYYADSVKDRFTISRDDSKSTLYLQMNSLRAEDTAVYYCVRHGNFGNSYVSWFAYWGQGTLVTVSSASTKGPSVFPLAPSSKSTSGGTAALGCLVKDYFPEPVTVSWNSGALTSGVHTFPAVLQSSGLYSLSSVVTVPSSSLGTQTYICNVNHKPSNTKVDKKVEPKSCDKTHTCPPCPAPEAAGGPSVFLFPPKPKDTLMISRTPEVTCVVVDVSHEDPEVKFNWYVDGVEVHNAKTKPREEQYNSTYRVVSVLTVLHQDWLNGKEYKCKVSNKALGAPIEKTISKAKGQPREPQVYTLPPCREEMTKNQVSLWCLVKGFYPSDIAVEWESNGQPENNYKTTPPVLDSDGSFFLYSKLTVDKSRWQQGNVFSCSVMHEALHNHYTQKSLSLSPGK
# chain: EVQLLESGGGLVQPGGSLRLSCAASGFTFSSYAMIWVRQAPGKGLEWVSGISESGGSTYYADSVKGRFTISRDNSKNTLYLQMNSLRAEDTAVYFCVKDLDDILTGYYKDYWGQGTLVTVSSASEPKSSDKTHTCPPCPAPEAAGGPSVFLFPPKPKDTLMISRTPEVTCVVVDVSHEDPEVKFNWYVDGVEVHNAKTKPREEQYNSTYRVVSVLTVLHQDWLNGKEYKCKVSNKALGAPIEKTISKAKGQPREPQVCTLPPSREEMTKNQVSLSCAVKGFYPSDIAVEWESNGQPENNYKTTPPVLDSDGSFFLVSKLTVDKSRWQQGNVFSCSVMHEALHNHYTQKSLSLSPGK
# notes: Structure 11 (Fab-Fc-VH): CD3 Fab from PR000511, BCMA VH from PR000940; human IgG1 knob/hole, AAG; also called BCMA×CD3 bispecific antibody molecule of Fab-Fc-VH asymmetric structure
# B2: PR001988 (bispecific antibody, human IgG1, lambda, L234A L235A)
# light: B1 light
# heavy: B1 heavy
# chain: EVQLVETGGGLIQPGGSLRLSCAASGFPVSSNYMSWVRQAPGKGLEWVSVIFSGGRTYYADSVKGRFTISRDNSKNTLYLQMNSLRAEDTAVYYCARRNWIDGRDAFDIWGQGTMVTVSSASEPKSSDKTHTCPPCPAPEAAGGPSVFLFPPKPKDTLMISRTPEVTCVVVDVSHEDPEVKFNWYVDGVEVHNAKTKPREEQYNSTYRVVSVLTVLHQDWLNGKEYKCKVSNKALGAPIEKTISKAKGQPREPQVCTLPPSREEMTKNQVSLSCAVKGFYPSDIAVEWESNGQPENNYKTTPPVLDSDGSFFLVSKLTVDKSRWQQGNVFSCSVMHEALHNHYTQKSLSLSPGK
# notes: Structure 11 (Fab-Fc-VH): CD3 Fab from PR000511, BCMA VH from PR000943; human IgG1 knob/hole, AAG
# B3: PR001989 (bispecific antibody, human IgG1, lambda, L234A L235A)
# light: B1 light
# heavy: B1 heavy
# chain: B2 chain with P28T, S35T, R56S, N99I, W100A, I101V, D102A, R104H, A106V
# notes: Structure 11 (Fab-Fc-VH): CD3 Fab from PR000511, BCMA VH from PR001035; human IgG1 knob/hole, AAG
# Target: T1, human CD3 (TCR/CD3 complex) on human T cells (human, UniProt P07766 23-207)
# T1 construct: whole, on cells
# T1 sequence (P07766 23-207, one chain of several): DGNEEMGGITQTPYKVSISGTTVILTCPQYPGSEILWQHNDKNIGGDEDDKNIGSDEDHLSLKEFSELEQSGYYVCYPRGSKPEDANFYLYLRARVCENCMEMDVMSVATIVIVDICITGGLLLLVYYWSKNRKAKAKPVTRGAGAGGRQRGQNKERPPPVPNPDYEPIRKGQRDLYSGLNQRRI
# Test: flow cytometry (FACS) on human T cells, Experiment 1
# Description: The binding ability of the antibody molecules to human or cynomolgus monkey T cells was tested by flow cytometry FACS. […] The T cell density was adjusted to 1×10⁶ cells/mL. […] The cells were incubated at 4° C. for 1 h away from light. Then, the cells in each well were rinsed twice with 100 μL of pre-cooled PBS, and centrifuged at 500 g at 4° C. for 5 min, and then the supernatant was discarded. […] The cells in each well were rinsed twice with 100 μL of pre-cooled PBS, and centrifuged at 500 g at 4° C. for 5 min, and then the supernatant was discarded. Finally, the cells in each well were resuspended in 200 μL of pre-cooled PBS. Fluorescence signal values were read using a BD FACS CANTOII flow cytometer or an ACEA NovoCyte flow cytometer, and the data were processed and analyzed using FlowJo v10 (FlowJo, LLC) software. The data were processed and analyzed by plotting using GraphPad Prism 8 software, and binding curves of the antibodies to target cells, EC₅₀ values and other parameters were obtained through four-parameter nonlinear fitting.
row,Binder,Maximum MFI [MFI]
1,B1,5160
2,B2,5800
3,B3,6680
